According to patent US20220218834A1, “APOHEMOGLOBIN-HAPTOGLOBIN COMPLEXES AND METHODS OF USING THEREOF” (OHIO STATE INNOVATION FOUNDATION, priority 2019, published 2022):
“And” between values parts separate entries of the source, which are not always exact repeats. Equal entries are not always repeated. Marks after values point to notes of the source that are not given here. Each block holds one molecule with its values, some of them ahead of it.

Experiments:
[1] = O2 equilibrium binding curves of rHb and native Hb (Hemox analyzer); format: biochemical; details: 37° C.; for P50: O2 affinity; for N (cooperativity coefficient n): O2 equilibrium
Experimental: rHb Analysis. Various liganded forms of rHb were analyzed via UV-Vis spectroscopy and compared against native Hb. The oxy-rHb and oxyHb equilibrium binding curves were measured using a Hemox analyzer (TCS Scientific Corp., New Hope, Pa.) at 37° C. The spectra of rHb was measured after one day reaction with excess heme (stage 1), after reduction and diafiltration with the modified HEMOX buffer (stage 2), after placing the rHb mixture under a CO atmosphere (stage 3), after heating the CO-rHb mixture and removing precipitate (stage 4), and after re-oxygenating the rHb sample (stage 5). Spectral deconvolution software was developed in the Python programming language (Python Software Foundation Beaverton, Oreg.) using the non-linear least squares function curve_fit of the SciPy package to determine the fraction of various liganded forms of rHb that contribute to the final spectra of the rHb mixture (i.e. containing metHb, hemichrome, oxyHb, HbCO and heme).

[2] = Specificity of Al-PC binding to proteins (UV-visible absorbance at 680 nm); details: absorbance at 680 nm after Al-PC addition in PBS
Experimental: The stock Al-PC solution was diluted 100× into 100% EtOH.
The concentrations of Hp, HSA, Hb and rHb in solution were 1.0 mg/mL, 0.35 mg/ml (and 3.5 mg/ml), 0.35 mg/mL, and 0.33 mg/mL respectively.

[3] = ApoHb stability during storage (DCNh activity assay, total protein, RP-HPLC); format: physicochemical; details: for effect of time on apoHb activity or total protein: stored at −80° C.
Experimental: The extinction coefficients of DCNh and rHbCN were 85 mM^−1 cm^−1 and 114 mM^−1 cm^−1, respectively.
Three TFF-apoHb batches were prepared. […] These groups consisted of unconcentrated, concentrated and lyophilized apoHb. […] The remainder of the batch was either sent to be lyophilized or to be concentrated to […]. […] The lyophilized powder was stored in a closed container at −80° C. […] These time intervals were chosen to capture relevant changes in activity at each storage condition. […] Thus, after initial measurements on a weekly basis, the insignificant changes lead to longer intervals between measurements. Statistical analysis was performed on JMP Pro v 12.2.2 (SAS Institute, Cary, N.C.) and measured concentrations were compared to the initial time point values of each batch. A linear fit with the logarithmic value of the concentration was used to examine the effect of time with the ANOVA test. For time point differences, time was considered as discrete and the TUKEY HSD test was performed.
Reverse Phase Chromatography. Reverse phase (RP) chromatography was performed with a BioBasic-18 column (Thermo Scientific, Waltham, Mass.) on a Thermo Scientific Dionex Ultimate UHPLC system. The flow rate of the mobile phase was set to 0.75 mL/min. The column was equilibrated with 35% acetonitrile and 65% TFA (0.5 wt %, pH 2.6) for 10 minutes. The gradient was then shifted to 43% acetonitrile over a 1 minute interval. The protein was eluted with an increasing linear gradient of 43 to 47% acetonitrile for 30 minutes. The column was then held at 47% acetonitrile for 20 minutes.

acellular human Hb = biological target: T1, acellular human Hb (Homo sapiens, UniProt P68871+P69905); assay: Vascular response to acellular Hb after pretreatment, hamster dorsal window chamber; format: in vivo, Golden Syrian Hamsters
T1 construct: Expired units of human red blood cells were generously donated; from tissue; host or cells: expired human red blood cell units; purified in house by tangential flow filtration
Experimental: Studies were performed in 55-65 g male Golden Syrian Hamsters (Charles River Laboratories, Boston, Mass.) fitted with a dorsal window chamber. The hamster window chamber model is widely used for microvascular studies without anesthesia. The complete surgical technique has been described previously. Two days after window implantation, arterial and venous catheters filled with heparinized saline solution (30 IU/mL) were implanted into the carotid and jugular vessels. Catheters were tunneled under the skin, exteriorized at the dorsal side of the neck, and securely attached to the window frame.
The unanesthetized animal was placed in a restraining tube with a longitudinal slit from which the window chamber protruded, then fixed to the microscopic stage for transillumination with the intravital microscope (BX51WI, Olympus, Japan). Animals were given 20 minutes to adjust to the tube environment and images were obtained using a CCD camera (4815, COHU, San Diego, Calif.). […]
The MAP and HR were monitored continuously (MP150, Biopac System Inc., Santa Barbara, Calif.). Hct was measured from centrifuged arterial blood samples taken in heparinized capillary tubes. Hb content was determined spectrophotometrically (B-Hemoglobin, Hemocue, Stockholm, Sweden). Arterial blood was collected in heparinized glass capillaries (50 μL) and immediately analyzed for pO2, pCO2, and pH (ABL90; Radiometer America, Brea, Calif.). Arterial Hb saturation was measured using an IL482 CO-Oximeter (Instrumentation Laboratory, Lexington, Mass.).
Arteriolar and venular blood flow velocities were measured using the photodiode cross-correlation method (Photo-Diode/Velocity, Vista Electronics, San Diego, Calif.). The measured centerline velocity (V) was corrected according to blood vessel size to obtain the mean RBC velocity. […] Blood flow (Q) was calculated from the measured values as Q=π/4D^2 V.
Functional capillaries, defined as capillary segments that have transit of at least one RBC in a 60 second period in 10 successive microscopic fields, were assessed in a region of 0.46 mm^2. […]

PolyHb = biological target: T2, PolyHb (Homo sapiens, UniProt P68871+P69905); assay: 20% isovolemic exchange transfusion of PolyHb after pretreatment, hamster window chamber; format: in vivo, Golden Syrian Hamsters
T2 construct: from tissue; host or cells: human red blood cells; Hb purified and polymerised in house
Experimental: Additionally, animals with signs of low perfusion, inflammation, edema, or bleeding in their microvasculature were excluded from the study. Prior to treatment, baseline systemic parameters and microvascular hemodynamics were assessed. […] 20 minutes following the initial treatment, the systemic parameters and microvascular hemodynamics were assessed. Afterward, the animals underwent a 20 percent isovolemic exchange transfusion with a 10 g/dL PolyHb solution. After another 20 minutes, the systemic parameters and microvascular hemodynamics were measured. Mean arterial pressure (MAP) and heart rate (HR) were monitored continuously (MP150, Biopac System Inc., Santa Barbara, Calif.). The sample size of 5 animals per group was calculated based on an expected 10% difference in mean arterial pressure between groups, an α=0.05, and […], and equal enrollment for all groups. Additionally, microhemodynamic measurements contain data from multiple vessels within the field (5-7 arterioles and venules selected at baseline based on visual clarity), improving the power of these measurements. Each experiment is a repeated measures study, so all experimental timepoints are replicated between all animals and groups. Furthermore, each experimental group contains animals from different litters, improving the replication of these studies. Animals were randomly assigned to their respective group before baseline measurements were taken. Each group contains animals from multiple litters of hamsters to improve randomization. Investigators were not blinded to group allocation during data collection or analysis. Blinding is not possible with these solutions as they have distinct colors. Measurements taken are highly quantitative, so blinding should have little impact.
The unanesthetized animal was placed in a restraining tube with a longitudinal slit from which the window chamber protruded, then fixed to the microscopic stage for transillumination with the intravital microscope (BX51WI, Olympus, New Hyde Park, N.Y.). […] Measurements were carried out using a 40× (LUMPFL-WIR, numerical aperture 0.8, Olympus) water immersion objective.
Arteriolar and venular blood flow velocities were measured using the photodiode cross-correlation method (Photo-Diode/Velocity, Vista Electronics, San Diego, Calif.). The measured centerline velocity (V) was corrected according to blood vessel size to obtain the mean RBC velocity. A video image-shearing method was used to measure blood vessel diameter (D). Blood flow (Q) was calculated from the measured values as
Functional capillaries, defined as capillary segments that have RBC transit of at least one RBC in a 60 second period in 10 successive microscopic fields, were assessed in a region of 0.46 mm^2. FCD (mm^−1) is calculated as the total length of RBC perfused capillaries divided by the area (0.46 mm^2).

β-thalassemic mice = details: cited from earlier work

T1 sequence (P69905 2-142 limits assumed): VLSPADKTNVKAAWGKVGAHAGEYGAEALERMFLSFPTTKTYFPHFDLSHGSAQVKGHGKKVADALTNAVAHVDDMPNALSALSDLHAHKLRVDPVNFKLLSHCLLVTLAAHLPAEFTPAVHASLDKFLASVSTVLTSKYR
T1 sequence (P68871 2-147 limits assumed): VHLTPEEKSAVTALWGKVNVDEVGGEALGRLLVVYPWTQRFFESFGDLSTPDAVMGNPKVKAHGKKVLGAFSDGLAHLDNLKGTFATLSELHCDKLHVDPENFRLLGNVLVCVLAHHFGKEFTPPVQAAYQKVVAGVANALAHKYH
T2 sequence (P69905 2-142 limits assumed): as the sequence (P69905 2-142 limits assumed) above
T2 sequence (P68871 2-147 limits assumed): as the sequence (P68871 2-147 limits assumed) above

P50 [1]: 11.36 ± 0.87 mm Hg
P50 ([1]; listed as concentrated rHb): 11.36±0.87 mm Hg
N (cooperativity coefficient n) [1]: 2.14 ± 0.17^a
N (cooperativity coefficient n) ([1]; listed as concentrated rHb): 2.14±0.17
Molecule: TFF rHb Concentrated: reconstituted Hb made from concentrated TFF-apoHb

P50 [1]: 11.52±0.02 mm Hg and 11.20 ± 0.43 mm Hg
P50 ([1]; listed as unconcentrated rHb): 11.20±0.43 mm Hg
N (cooperativity coefficient n) ([1]; listed as unconcentrated rHb): 2.27±0.10
Al-PC binding [2]: no appreciable binding of Al-PC
Molecule: TFF rHb: reconstituted Hb made from TFF-apoHb and heme

Molecule: apoHb: protein produced by removing heme from Hb; made via acidic ethanol tangential flow filtration
loss of apoHb activity during long term storage ([3]; 4° C., −80° C., and lyophilized form): Virtually no loss of apoHb activity
total protein and activity in solution during storage ([3]; 37° C., liquid): quickly lost total protein and activity in solution
P50 and cooperativity coefficient after reconstitution into rHb ([3]; apoHb stored at 4° C. for one month, vs reconstituted right after production): did not show any significant difference
effect of time on apoHb activity or total protein ([3]; lyophilized): did not show a significant effect of time on apoHb activity or total protein
retention of total protein ([3]; one-week storage at 22° C.): 80-90%
oxidative modifications (RP-HPLC) ([3]; stored at 4° C. or at 22° C.): show an additional β-chain peak (βox)
effect of time on activity ([3]; stored at 4° C., unconcentrated): no significant differences were seen after day 10
oxidative modifications (RP-HPLC) ([3]; stored at −80° C. or lyophilized for over a year): no oxidative modifications were observed
effect of time on apoHb activity or total protein ([3]; both concentrations): no statistically significant effect of time on apoHb activity or total protein
MAP (acellular human Hb; after acellular Hb 10% hypervolemic infusion): elevated MAP compared to baseline and pretreatment
FCD (acellular human Hb; after acellular Hb infusion): FCD decreased
HR (acellular human Hb; after acellular Hb infusion): statistically significant decrease in HR from baseline and pre-treatment
MAP (PolyHb; after PolyHb exchange transfusion): significant increase in MAP
FCD (PolyHb; after PolyHb transfusion): FCD significantly decreased
arteriole and venule diameter (PolyHb; after PolyHb transfusion): significant decrease in relative arteriole and venule diameter compared to the baseline
arteriole and venule fluid velocities and volumetric flow rates (PolyHb; after PolyHb transfusion): the volumetric flow rate in the arterioles and venules decreased
MAP or HR (PolyHb; after administration, prior to transfusion of PolyHb): no significant effect on MAP or HR
FCD (PolyHb; after treatment, before PolyHb transfusion): significant increase in FCD
Al-PC binding [2]: Al-PC bound to apoHb and prevented Al-PC aggregation

B1: Hpx: hemopexin, plasma heme scavenging protein (protein, UniProt P02790 24-462, looked up)
Hemopexin: TPLPPTSAHGNVAEGETKPDPDVTERCSDGWSFDATTLDDNGTMLFFKGEFVWKSHKWDRELISERWKNFPSPVDAAFRQGHNSVFLIKGDKVWVYPPEKKEKGYPKLLQDEFPGIPSPLDAAVECHRGECQAEGVLFFQGDREWFWDLATGTMKERSWPAVGNCSSALRWLGRYYCFQGNQFLRFDPVRGEVPPRYPRDVRDYFMPCPGRGHGHRNGTGHGNSTHHGPEYMRCSPHLVLSALTSDNHGATYAFSGTHYWRLDTSRDGWHSWPIAHQWPQGPSAVDAAFSWEEKLYLVQGTQVYVFLTKGGYTLVSGYPKRLEKEVGTPHGIILDSVDAAFICPGSSRLHIMAGRRLWWLDLKSGAQATWTELPWPHEKVDGALCMEKSLGPNSCSANGPGLYLIHGPNLYCYSDVEKLNAAKALPQPQNVTSLLGCTH
RBC levels (β-thalassemic mice; Hpx treatment alone): did not improve RBC levels
iron levels in the liver (β-thalassemic mice; one month of Hpx treatment alone): increased iron levels in the liver
